The results in this text go back to FireProtDB (doi:10.1021/bi982427c).

For the data set the following is noted: Bos taurus; pH 5.3; 5 °C; GdnHCl; Fluorescence; Sodium acetate 0.02 M; reversible: yes; whole UniProt chain shown.

B1: Acyl-CoA-binding protein wild type, P07107 (protein)
chain: MSQAEFDKAAEEVKHLKTKPADEEMLFIYSHYKQATVGDINTERPGMLDFKGKAKWDAWNELKGTSKEDAMKAYIDKVEELKKKYGI
B1: the unfolding free energy amounted to 7.89 kcal/mol.
